T1: PeGLABRA3 (Populus euphratica, UniProt A0AAJ6UG00 1-628)
T1 sequence: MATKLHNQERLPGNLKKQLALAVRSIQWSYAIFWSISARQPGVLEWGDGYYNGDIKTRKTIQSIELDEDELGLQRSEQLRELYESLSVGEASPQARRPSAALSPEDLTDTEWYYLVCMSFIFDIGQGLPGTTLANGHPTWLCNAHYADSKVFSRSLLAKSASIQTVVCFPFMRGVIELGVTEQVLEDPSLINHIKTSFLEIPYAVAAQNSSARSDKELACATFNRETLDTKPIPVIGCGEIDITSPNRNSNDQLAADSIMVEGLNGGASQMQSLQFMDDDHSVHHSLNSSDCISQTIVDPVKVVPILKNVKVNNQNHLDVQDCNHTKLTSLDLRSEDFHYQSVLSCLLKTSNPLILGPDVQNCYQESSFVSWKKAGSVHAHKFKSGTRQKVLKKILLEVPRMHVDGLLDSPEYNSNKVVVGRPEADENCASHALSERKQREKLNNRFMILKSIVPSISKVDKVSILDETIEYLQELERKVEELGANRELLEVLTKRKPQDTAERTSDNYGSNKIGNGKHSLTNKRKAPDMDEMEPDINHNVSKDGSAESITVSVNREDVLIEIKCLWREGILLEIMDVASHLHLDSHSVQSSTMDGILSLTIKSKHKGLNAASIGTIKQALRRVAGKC

B1: AtPLDδ promoter G-box probe (dsDNA)
DNA 1: AACTCCCATCACGTCGTCCCTCCACCTGTCCTCTCTTCTCCTTCCTTGCT
DNA 2: AGCAAGGAAGGAGAAGAGAGGACAGGTGGAGGGACGACGTGATGGGAGTT
B2: PePLDδ promoter G-box probe (dsDNA)
DNA 1: CGCTGATCCGGGTAACTGAAATCAGCTGCTGAGAGATGGAAGAGGAGAAT
DNA 2: ATTCTCCTCTTCCATCTCTCAGCAGCTGATTTCAGTTACCCGGATCAGCG
B3: PePLDδ promoter G-box cold probe (dsDNA)
DNA 1: B2 DNA 1
DNA 2: B2 DNA 2

Tests used:
PeGLABRA3 [1] = target: T1, PeGLABRA3; experiment: EMSA; EMSA on 6% polyacrylamide gel, biotin probes, cold probe 10x; binding buffer, pH, salt and temperature not stated; details: protein: recombinant; tags: C-terminal His (pET28a); chain copies: 2; label: 3' biotin; blunt
PeGLABRA3 [2] = target: T1, PeGLABRA3; experiment: competition; 10x unlabeled probe vs biotin N1; EMSA on 6% polyacrylamide gel, biotin probes, cold probe 10x; binding buffer, pH, salt and temperature not stated; details: protein: recombinant; tags: C-terminal His (pET28a); chain copies: 2; blunt

Row | Binder | binding result (PeGLABRA3 [1]) | binding result (PeGLABRA3 [2])
1 | B1 | binds | 
2 | B2 | binds | 
3 | B3 |  | binds
